{"source": "paper PMC6629641", "about": "“DNA translocation mechanism of the MCM complex and implications for replication initiation” (Nature Communications, 2019)", "key": {"[1]": {"target": "the molecule itself", "test": "SEC; last gel-filtration step after removal of the SUMO tag and anion exchange; oligomer judged from the elution volume"}, "[2]": {"target": "the molecule itself", "test": "crystal structure; SsoMCM-GGSGGS-ΔC with a 12-mer oligonucleotide, magnesium, ADP and beryllium fluoride; hanging drop, 18 °C, 50 mM MES pH 6.0, 100 mM NaCl, 20 mM MgCl2, 9% PEG 8000; 3.15 Å"}}}
{"protein": "wild-type full-length SsoMCM (enzyme, Sulfolobus solfataricus, UniProt Q9UXG1 1-686, looked up, minichromosome maintenance (MCM) protein of Sulfolobus solfataricus, full length; also called pEE045.1; source: E. coli BL21(DE3)-RIPL, purified (Ni-NTA, size-exclusion, Ulp1 cleavage, anion exchange, gel filtration); not shown: His6, N-terminal, cleaved; SUMO, N-terminal, cleaved) MEIPSKQIDYRDVFIEFLTTFKGNNNQNKYIERINELVAYRKKSLIIEFSDVLSFNENLAYEIINNTKIILPILEGALYDHILQLDPTYQRDIEKVHVRIVGIPRVIELRKIRSTDIGKLITIDGILVKVTPVKERIYKATYKHIHPDCMQEFEWPEDEEMPEVLEMPTICPKCGKPGQFRLIPEKTKLIDWQKAVIQERPEEVPSGQLPRQLEIILEDDLVDSARPGDRVKVTGILDIKQDSPVKRGSRAVFDIYMKVSSIEVSQKVLDEVIISEEDEKKIKDLAKDPWIRDRIISSIAPSIYGHWELKEALALALFGGVPKVLEDTRIRGDIHILIIGDPGTAKSQMLQFISRVAPRAVYTTGKGSTAAGLTAAVVREKGTGEYYLEAGALVLADGGIAVIDEIDKMRDEDRVAIHEAMEQQTVSIAKAGIVAKLNARAAVIAAGNPKFGRYISERPVSDNINLPPTILSRFDLIFILKDQPGEQDRELANYILDVHSGKSTKNIIDIDTLRKYIAYARKYVTPKITSEAKNLITDFFVEMRKKSSETPDSPILITPRQLEALIRISEAYAKMALKAEVTREDAERAINIMRLFLESVGVDMESGKIDIDTIMTGKPKSAREKMMKIIEIIDSLAVSSECAKVKDILKEAQQVGIEKSNIEKLLTDMRKSGIIYEAKPECYKKV", "values": [{"measurement": "stoichiometry N", "setting": "[1]", "value": 6}]}
{"protein": "SsoMCM-GGSGGS-ΔC (enzyme, Sulfolobus solfataricus, UniProt Q9UXG1 1-612, looked up, minichromosome maintenance (MCM) protein of Sulfolobus solfataricus, cut after amino acid 612 (the C-terminal HTH domain deleted); Homohexamer; crystallised with a 12-mer ssDNA, Mg2+, ADP and ADP-BeF3; also called nearly full-length SsoMCM; MCM hexamer; source: E. coli BL21(DE3)-RIPL, purified (Ni-NTA, size-exclusion, Ulp1 cleavage, anion exchange, gel filtration); not shown: His6, N-terminal, …) MEIPSKQIDYRDVFIEFLTTFKGNNNQNKYIERINELVAYRKKSLIIEFSDVLSFNENLAYEIINNTKIILPILEGALYDHILQLDPTYQRDIEKVHVRIVGIPRVIELRKIRSTDIGKLITIDGILVKVTPVKERIYKATYKHIHPDCMQEFEWPEDEEMPEVLEMPTICPKCGKPGQFRLIPEKTKLIDWQKAVIQERPEEVPSGQLPRQLEIILEDDLVDSARPGDRVKVTGILDIKQDSPVKRGSRAVFDIYMKVSSIEVSGGSGGSSEEDEKKIKDLAKDPWIRDRIISSIAPSIYGHWELKEALALALFGGVPKVLEDTRIRGDIHILIIGDPGTAKSQMLQFISRVAPRAVYTTGKGSTAAGLTAAVVREKGTGEYYLEAGALVLADGGIAVIDEIDKMRDEDRVAIHEAMEQQTVSIAKAGIVAKLNARAAVIAAGNPKFGRYISERPVSDNINLPPTILSRFDLIFILKDQPGEQDRELANYILDVHSGKSTKNIIDIDTLRKYIAYARKYVTPKITSEAKNLITDFFVEMRKKSSETPDSPILITPRQLEALIRISEAYAKMALKAEVTREDAERAINIMRLFLESVGVDMESGKIDID", "values": [{"measurement": "stoichiometry N", "setting": "[2]", "value": 6}]}
